Source: US20230002480A1

What was measured:
Test in all cases: cell-based or functional assay
[1] = target: HIV-1 Env of pseudovirus 7030102001E5(Rev-) (HIV-1)
[2] = target: HIV-1 Env of pseudovirus BF1266.431a (HIV-1)
[3] = target: HIV-1 Env of pseudovirus Ce1172_H1 (HIV-1)
[4] = target: HIV-1 Env of pseudovirus 6244_13_B5_4576 (HIV-1)
[5] = target: HIV-1 Env of pseudovirus CNE21 (HIV-1)
[6] = target: HIV-1 Env of pseudovirus CNE19 (HIV-1)
[7] = target: HIV-1 Env of pseudovirus CNE52 (HIV-1)
[8] = target: HIV-1 Env of pseudovirus RHPA4259.7 (HIV-1)
[9] = target: HIV-1 Env of pseudovirus ZM135M.PL10a (HIV-1)
[10] = target: HIV-1 Env of pseudovirus 1006_11_C3_1601 (HIV-1)
[11] = target: HIV-1 Env of pseudovirus Ce2010_F5 (HIV-1)
[12] = target: HIV-1 Env of pseudovirus THRO4156.18 (HIV-1)
[13] = target: HIV-1 Env of pseudovirus MS208.A1 (HIV-1)
[14] = target: HIV-1 Env of pseudovirus WITO4160.33 (HIV-1)
[15] = target: HIV-1 Env of pseudovirus Q259.d2.17 (HIV-1)
[16] = target: HIV-1 Env of pseudovirus 246F C1G (HIV-1)
[17] = target: HIV-1 Env of pseudovirus CAP210.2.00.E8 (HIV-1)
[18] = target: HIV-1 Env of pseudovirus REJO4541.67 (HIV-1)
[19] = target: HIV-1 Env of pseudovirus Ce703010054_2A2 (HIV-1)
[20] = target: HIV-1 Env of pseudovirus ZM249M.PL1 (HIV-1)
[21] = target: HIV-1 Env of pseudovirus AC10.0.29 (HIV-1)
[22] = target: HIV-1 Env of pseudovirus CAAN5342.A2 (HIV-1)
[23] = target: HIV-1 Env of pseudovirus WEAU_d15_410_787 (HIV-1)
[24] = target: HIV-1 Env of pseudovirus HIV-16845-2.22 (HIV-1)

Substance: N49P19 (antibody)
- IC50 [1]: 0.95 µg/mL
- IC80 [1]: 4.7 µg/mL
- MPI [1]: 100
- IC50 [2]: > 50 µg/mL
- IC80 [2]: > 50 µg/mL
- MPI [2]: 15
- IC50 [3]: > 50 µg/mL
- IC80 [3]: > 50 µg/mL
- MPI [3]: 3
- IC50 [4]: 0.571 µg/mL
- IC80 [4]: 1.82 µg/mL
- MPI [4]: 100
- IC50 [5]: > 50 µg/mL
- IC80 [5]: > 50 µg/mL
- MPI [5]: 21
- IC50 [6]: 20.7 µg/mL
- IC80 [6]: > 50 µg/mL
- MPI [6]: 59
- IC50 [7]: 0.175 µg/mL
- IC80 [7]: 0.491 µg/mL
- MPI [7]: 100
- IC50 [8]: > 50 µg/mL
- IC80 [8]: > 50 µg/mL
- MPI [8]: 42
- IC50 [9]: > 50 µg/mL
- IC80 [9]: > 50 µg/mL
- MPI [9]: 0
- IC50 [10]: 0.4 µg/mL
- IC80 [10]: 1.33 µg/mL
- MPI [10]: 100
- IC50 [11]: 7.66 µg/mL
- IC80 [11]: 45.4 µg/mL
- MPI [11]: 82
- IC50 [12]: 17.1 µg/mL
- IC80 [12]: > 50 µg/mL
- MPI [12]: 69
- IC50 [13]: 0.501 µg/mL
- IC80 [13]: 1.99 µg/mL
- MPI [13]: 99
- IC50 [14]: 0.263 µg/mL
- IC80 [14]: 1.29 µg/mL
- MPI [14]: 100
- IC50 [15]: > 50 µg/mL
- IC80 [15]: > 50 µg/mL
- MPI [15]: 11
- IC50 [16]: > 50 µg/mL
- IC80 [16]: > 50 µg/mL
- MPI [16]: 19
- IC50 [17]: > 50 µg/mL
- IC80 [17]: > 50 µg/mL
- MPI [17]: 0
- IC50 [18]: 0.169 µg/mL
- IC80 [18]: 0.859 µg/mL
- MPI [18]: 100
- IC50 [19]: > 50 µg/mL
- IC80 [19]: > 50 µg/mL
- MPI [19]: 0
- IC50 [20]: > 50 µg/mL
- IC80 [20]: > 50 µg/mL
- MPI [20]: 33
- IC50 [21]: > 50 µg/mL
- IC80 [21]: > 50 µg/mL
- MPI [21]: 13
- IC50 [22]: 1.24 µg/mL
- IC80 [22]: 4.4 µg/mL
- MPI [22]: 100
- IC50 [23]: 0.177 µg/mL
- IC80 [23]: 0.612 µg/mL
- MPI [23]: 100
- IC50 [24]: 14.5 µg/mL
- IC80 [24]: > 50 µg/mL
- MPI [24]: 73

Substance: N49P9.1 (antibody)
- IC50 [1]: 0.635 µg/mL
- IC80 [1]: 2.02 µg/mL
- MPI [1]: 100
- IC50 [2]: 0.808 µg/mL
- IC80 [2]: 3.14 µg/mL
- MPI [2]: 95
- IC50 [3]: > 50 µg/mL
- IC80 [3]: > 50 µg/mL
- MPI [3]: 42
- IC50 [4]: 0.343 µg/mL
- IC80 [4]: 1.5 µg/mL
- MPI [4]: 100
- IC50 [5]: > 50 µg/mL
- IC80 [5]: > 50 µg/mL
- MPI [5]: 15
- IC50 [6]: 0.033 µg/mL
- IC80 [6]: 0.146 µg/mL
- MPI [6]: 100
- IC50 [7]: 0.043 µg/mL
- IC80 [7]: 0.122 µg/mL
- MPI [7]: 100
- IC50 [8]: 0.021 µg/mL
- IC80 [8]: 0.066 µg/mL
- MPI [8]: 100
- IC50 [9]: 0.332 µg/mL
- IC80 [9]: 1.53 µg/mL
- MPI [9]: 98
- IC50 [10]: 0.135 µg/mL
- IC80 [10]: 0.448 µg/mL
- MPI [10]: 100
- IC50 [11]: 0.12 µg/mL
- IC80 [11]: 0.38 µg/mL
- MPI [11]: 100
- IC50 [12]: 1.65 µg/mL
- IC80 [12]: 9.44 µg/mL
- MPI [12]: 99
- IC50 [13]: 0.082 µg/mL
- IC80 [13]: 0.248 µg/mL
- MPI [13]: 100
- IC50 [14]: 0.051 µg/mL
- IC80 [14]: 0.241 µg/mL
- MPI [14]: 100
- IC50 [15]: > 50 µg/mL
- IC80 [15]: > 50 µg/mL
- MPI [15]: 48
- IC50 [16]: > 50 µg/mL
- IC80 [16]: > 50 µg/mL
- MPI [16]: 11
- IC50 [17]: > 50 µg/mL
- IC80 [17]: > 50 µg/mL
- MPI [17]: 2
- IC50 [18]: 0.064 µg/mL
- IC80 [18]: 0.231 µg/mL
- MPI [18]: 100
- IC50 [19]: 0.433 µg/mL
- IC80 [19]: 3.18 µg/mL
- MPI [19]: 96
- IC50 [20]: 0.206 µg/mL
- IC80 [20]: 1.92 µg/mL
- MPI [20]: 95
- IC50 [21]: 0.36 µg/mL
- IC80 [21]: 1.88 µg/mL
- MPI [21]: 99
- IC50 [22]: 2.16 µg/mL
- IC80 [22]: 8 µg/mL
- MPI [22]: 99
- IC50 [23]: 0.068 µg/mL
- IC80 [23]: 0.253 µg/mL
- MPI [23]: 100
- IC50 [24]: 2.13 µg/mL
- IC80 [24]: 10.7 µg/mL
- MPI [24]: 98
